Experimental findings from publication PMC7599888 are described below.

The experiment deals with Sulfolobus solfataricus poly(ADP-ribose) polymerase-like thermoprotein (PARPSso) (S. solfataricus). As to the kind of experiment: SDS-PAGE band shift with silver staining; PARPSso (3 ug, 65 pmol) mixed with Sso7 at 1:0.5, 1:1 and 1:3 mol/mol in 10 mM Na-phosphate/10 mM EDTA pH 7.5, 80 °C for 20 min (once at 45 °C); 5-12% gradient SDS-PAGE.
Sulfolobus solfataricus poly(ADP-ribose) polymerase-like thermoprotein (PARPSso) (S. solfataricus), sequence (B3EWG9 whole entry): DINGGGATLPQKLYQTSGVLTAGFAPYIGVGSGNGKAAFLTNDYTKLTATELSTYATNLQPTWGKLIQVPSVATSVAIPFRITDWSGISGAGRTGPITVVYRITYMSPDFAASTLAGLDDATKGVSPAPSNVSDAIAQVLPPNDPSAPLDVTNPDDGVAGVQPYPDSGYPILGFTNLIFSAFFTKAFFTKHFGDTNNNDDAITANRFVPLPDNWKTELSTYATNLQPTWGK

Turning to “Sso7 protein (from UniProt P39476 1-64) (natural protein)”, the stoichiometry N was 3.
